Reference: patent US20200347130A1 (JIANGSU HENGRUI MEDICINE, published 2020)

Experiments:
[1] = target: T1, CD96 epitope peptide #1 (17-36) (human); test: peptide ELISA ('-' indicates no binding, table note)
T1 peptide: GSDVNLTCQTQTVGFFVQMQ
Description: (§1) The epitopes recognized by anti-CD96 antibody were detected by the assay of binding the antibody to different polypeptide fragments of CD96 protein. The fragments of different polypeptides of the CD96 antigen were coated on the microtiter plate. The signal density after the antibody was added was used to judge the binding activity of the antibody and the polypeptide. The specific experimental method is as follows:
(§2) The polypeptides were diluted to a concentration of 20 μg/ml with PBS buffer (Shanghai Yuanpei Biotechnology Co., Ltd. Cat No. B320), pH 7.4, added to a 96-well microtiter plate (Corning, Cat No. CLS3590-100EA) at a volume of 50 μl/well, and coated at 4° C. overnight. After discarding the liquid, 250 μl/well of 5% skim milk (BD skim milk, Cat No. 232100) blocking solution diluted with PBS was added, and the plate was incubated in an incubator at 37° C. for 3 hours. After blocking, the blocking solution was discarded, and the plate was washed 5 times with PBST buffer (pH 7.4 PBS containing 0.05% tween-20). 50 μl/well of different concentrations of the antibodies to be tested (hybridoma purification antibody or humanized antibody) diluted with sample dilution was added, and the plate was incubated in an incubator at 37° C. for 2 hours. […] After washing the plate 5 times with PBST, 50 μl/well of TMB chromogenic substrate (KPL, Cat No. 52-00-03) was added, the plate was incubated at room temperature for 5-15 min, followed by adding 50 μl/well of 1M H₂SO₄ to stop the reaction. The absorption value was read at 450 nm with a microplate reader (Thermo Scientific MuLtiskan MK3), and the epitopes that CD96 antibody can recognize were analyzed.

[2] = target: T2, CD96 epitope peptide #2 (32-51) (human); test: as above
T2 peptide: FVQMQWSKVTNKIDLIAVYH
Description: as §1, §2

[3] = target: T3, CD96 epitope peptide #5 (77-86) (human); test: as above
T3 peptide: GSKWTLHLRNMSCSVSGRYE
Description: as §1, §2

[4] = target: T4, CD96 epitope peptide #6 (92-111) (human); test: as above
T4 peptide: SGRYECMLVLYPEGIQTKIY
Description: as §1, §2

[5] = target: T5, CD96 epitope peptide #7 (107-126) (human); test: as above
T5 peptide: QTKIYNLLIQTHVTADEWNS
Description: as §1, §2

[6] = target: T6, CD96 epitope peptide #8 (122-141) (human); test: as above
T6 peptide: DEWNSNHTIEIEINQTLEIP
Description: as §1, §2

[7] = target: T7, CD96 epitope peptide #11 (166-185) (human); test: as above
T7 peptide: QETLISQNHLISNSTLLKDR
Description: as §1, §2

[8] = target: T8, CD96 epitope peptide #12 (181-200) (human); test: as above
T8 peptide: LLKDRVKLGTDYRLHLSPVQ
Description: as §1, §2

[9] = target: T9, CD96 epitope peptide #13 (196-215) (human); test: as above
T9 peptide: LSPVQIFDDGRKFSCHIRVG
Description: as §1, §2

[10] = target: T10, CD96 epitope peptide #14 (211-230) (human); test: as above
T10 peptide: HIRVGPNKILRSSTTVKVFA
Description: as §1, §2

[11] = target: T11, CD96 epitope peptide #15 (220-239) (human); test: as above
T11 peptide: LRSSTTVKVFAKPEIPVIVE
Description: as §1, §2

[12] = target: T12, CD96 epitope peptide #16 (235-254) (human); test: as above
T12 peptide: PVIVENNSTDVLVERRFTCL
Description: as §1, §2

[13] = target: T13, CD96 epitope peptide #17 (250-269) (human); test: as above
T13 peptide: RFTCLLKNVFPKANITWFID
Description: as §1, §2

[14] = target: T14, CD96 epitope peptide #20 (295-314) (human); test: as above
T14 peptide: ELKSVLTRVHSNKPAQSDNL
Description: as §1, §2

[15] = target: T15, CD96 epitope peptide #22 (325-344) (human); test: as above
T15 peptide: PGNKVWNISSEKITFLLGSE
Description: as §1, §2

[16] = target: T1, CD96 epitope peptide #1 (17-36); test: peptide ELISA, peptide coated
Description: as §1, §2

[17] = target: T3, CD96 epitope peptide #5 (77-86 as …); test: peptide ELISA, peptide coated
Description: as §1, §2

[18] = target: T10, CD96 epitope peptide #14 (211-230); test: peptide ELISA, peptide coated
Description: as §1, §2

[19] = target: T13, CD96 epitope peptide #17 (250-269); test: peptide ELISA, peptide coated
Description: as §1, §2

Binder | binding result [1] | binding result [2] | binding result [3] | binding result [4] | binding result [5] | binding result [6] | binding result [7] | binding result [8] | binding result [9] | binding result [10] | binding result [11] | binding result [12] | binding result [13] | binding result [14] | binding result [15] | binding result [16] | binding result [17] | binding result [18] | binding result [19]
ch1720 (antibody, human IgG4 S228P, kappa, V domains shown, also called chimeric antibody corresponding to m1720) VH: EFQLQQSGPELVKPGASVKISCKASAYSLTDYNMNWVKQSNGKSLEWIGVINPSYGISSYNQKFKGKATLTVDQSSSTAYMHLNSLTSEDSAVYYCARQLRLPGYFDVWGTGTTVTVSS VL: DIKMTQSPSSKNASLGERVTITCKASQDINSYLNWFQQKPGKSPKTLIYRASRLVDGVPSRFSGSGSGQDYSLTISSLEYEDMGIYYCLKYDEFPYTFGGGTKLEIKR | no binding | no binding | no binding | no binding | no binding | no binding | no binding | no binding | no binding | no binding | no binding | no binding | no binding | no binding | no binding | – | – | – | –
ch1718 (antibody, human IgG4 S228P, kappa, V domains shown, also called chimeric antibody corresponding to m1718) VH: EFQLQQSGPELVKPGASVKISCKASAYSITDYNMNWVKQSNGKSLEWIGVINPSYGITDYNQNFKDKATLTVDQSSSTAYMQLNSLTSEDSAVYYCAIQLRLPGYFDVWGTGTTVIVSS VL: DIKMTQSPSSMYASLGERVTITCKASQDINNYLNWFQQKPGKSPKTLIYRANRLVDGVPSRFSGSGSGQDYSLTISSLEYEDMGIYYCLKYDEFPYTFGGGTKVEIKR | – | – | – | – | – | – | – | – | – | – | – | – | – | – | – | binds | binds | binds | binds
ch1719 (antibody, human IgG4 S228P, kappa, V domains shown, also called chimeric antibody corresponding to m1719) VH: QVQLKESGPGLVAPSQSLSITCTVSGFSLISYGVSWVRQPPGKGLEWLGVIWGDGNTNYHSVLISRLSIRKDDSKSQVFLKLNSLQTDDTATYYCAKNNYYGSRYGYPMDYWGQGTSVTVSS VL: DIVMTQSHKFMSTSVGDRVSITCKATQDVGTAVAWYQQKPGHSPKLLIYWASTRHTGVPERFTGSGSGTDFTLTIDNVQSEDLADYFCQQYGSSVLTFGAGTKVELRR | no binding | no binding | no binding | no binding | no binding | no binding | no binding | no binding | no binding | no binding | no binding | no binding | no binding | no binding | no binding | – | – | – | –
ch1721 (antibody, human IgG4 S228P, kappa, V domains shown, also called chimeric antibody corresponding to m1721) VH: QVQLKESGPGLVAPSQSLSITCTVSGFSLISYGVNWVRQPPGKGLEWLGVIWGDGSTNYHSALISRLSISKDDSKSQVFLNLNSLQTDDTATYYCAKNYFYGSRYGYAMDSWGQGISVTVSS VL: DIQMTQSPASLSAAVGETVTITCRASENIYSSLAWYQQKQGKSPQLLVYNAKTLIETVASRFSGSGSGTQYSLKINSLQPEDFGSFYCQHHYGTPYTFGGGTKLEIKR | – | – | – | – | – | – | – | – | – | – | – | – | – | – | – | binds | binds | binds | binds
